From paper PMC4691284 come the findings set out here.

The target of the assay is Fer F-BAR domain (human) (UniProt P16591). As to the kind of experiment: AUC.

Fer F-BAR domain, sequence (P16591 1-264): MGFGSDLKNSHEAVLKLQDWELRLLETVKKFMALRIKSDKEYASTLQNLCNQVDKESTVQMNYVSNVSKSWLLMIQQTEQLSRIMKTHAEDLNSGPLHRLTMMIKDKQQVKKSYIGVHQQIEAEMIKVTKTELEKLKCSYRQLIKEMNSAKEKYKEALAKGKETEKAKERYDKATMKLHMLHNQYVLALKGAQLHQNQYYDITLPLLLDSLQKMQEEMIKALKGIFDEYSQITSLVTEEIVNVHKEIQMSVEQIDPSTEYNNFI

For “Fer F-BAR domain (from UniProt P16591 1-259) (domain or fragment)”, the stoichiometry N was 2 dimers.

The stoichiometry N is a count of units in the complex or per binding partner.
